According to patent publication EP3349768A1:

Molecular target: T1, Cathepsin G (CTSG) from mouse bone marrow cell lysates (mouse) (UniProt P28293)
T1 sequence (looked up): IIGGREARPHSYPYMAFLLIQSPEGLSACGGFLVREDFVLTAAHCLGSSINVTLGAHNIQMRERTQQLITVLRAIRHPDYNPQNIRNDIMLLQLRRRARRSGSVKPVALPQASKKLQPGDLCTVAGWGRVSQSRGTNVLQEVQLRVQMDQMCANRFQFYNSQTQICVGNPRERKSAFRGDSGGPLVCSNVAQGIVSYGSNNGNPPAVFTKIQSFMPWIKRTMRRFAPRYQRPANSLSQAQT
Assay: cell-based or functional assay

decrease in CTSG enzymatic activity (cleavage of a specific substrate, release of pNA): 50%
B1: LKAb antibody (anti-Cathepsin G scFv, purified as scFv-Fc fusion protein) (Fc fusion, part only; not given: Fc tag, part only)
scFv, part: MAQVQLVQSGAEVKKPGASVKVSCKASGYTFTSYYMHWVRQAPGQGLEWMGGIIPIFGTGNYAQKFQGRVTITADESTSTAYMELSSLRSEDTAVYYCAREEEQQFSLDYWGQGTLVTVSSGGGGGLSNFMLTQPHSVSESPGKTVTISCTRSSGSIASNSVHWYQQRPGSAPTTVISENNQRPSGVPDRFSGSIDSSSNSASLTISGLKTEDEADYYCQSYDSNFHWVFGGGTQLTVLG
